Measurements published in paper PMC9005580, “In silico structural, phylogenetic and drug target analysis of putrescine monooxygenase from Shewanella putrefaciens-95” (Journal of Genetic Engineering & Biotechnology, 2022).
Where two headings read alike, the source gives them in different places. Values belong to the molecule of their own block, whether it stands above or below them.

Columns and labels:
[1] = molecular target: T1, putrescine monooxygenase (SpPMO) (Shewanella putrefaciens, UniProt A0A4D6BRL2); assay: Csaky iodine oxidation product-formation assay with […] enzyme; Lineweaver-Burk plots; format: biochemical
T1 construct: gene pubA
T1 sequence (A0A4D6BRL2 1-505): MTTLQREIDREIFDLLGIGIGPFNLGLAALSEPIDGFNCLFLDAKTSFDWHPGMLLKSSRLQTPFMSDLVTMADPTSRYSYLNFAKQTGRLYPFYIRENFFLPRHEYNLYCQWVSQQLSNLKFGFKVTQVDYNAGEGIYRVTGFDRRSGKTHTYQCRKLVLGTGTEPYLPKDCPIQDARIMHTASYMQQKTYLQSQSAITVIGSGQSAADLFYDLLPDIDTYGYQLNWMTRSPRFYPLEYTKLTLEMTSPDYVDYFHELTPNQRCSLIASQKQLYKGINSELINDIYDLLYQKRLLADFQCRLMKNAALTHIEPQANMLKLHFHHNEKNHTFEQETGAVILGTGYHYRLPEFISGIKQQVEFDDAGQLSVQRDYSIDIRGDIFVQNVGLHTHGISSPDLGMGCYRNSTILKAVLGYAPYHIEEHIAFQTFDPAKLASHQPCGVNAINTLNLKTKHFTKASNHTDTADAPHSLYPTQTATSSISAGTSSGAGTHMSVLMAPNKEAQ

[2] = substrate: NCCCCN; assay: Michaelis-Menten kinetics, N-hydroxyl putrescine formation by Csaky iodine oxidation assay (Km); format: biochemical, Shewanella putrefaciens; conditions: FAD
[3] = NADPH putrescine binding pocket: Pro22, Phe23, Gly26, Leu399, Gly402 and Asn406 (docking)

Molecule: COc1cc(/C=C/C(=O)CC(=O)/C=C/c2ccc(O)c(OC)c2)ccc1O [curcumin]
Ki [1]: 2.6 ± 0.0036 µM

Ki ([1]; read-out: Ki): 18.38 ± 0.008 µM
Molecule: C[C@@H]1O[C@@H](Oc2ccc(CC#N)cc2)[C@H](O)[C@H](O)[C@H]1O [niazirin]

B1: putrescine monooxygenase (SpPMO) (Shewanella putrefaciens) (protein)
chain: MTTLQREIDREIFDLLGIGIGPFNLGLAALSEPIDGFNCLFLDAKTSFDWHPGMLLKSSRLQTPFMSDLVTMADPTSRYSYLNFAKQTGRLYPFYIRENFFLPRHEYNLYCQWVSQQLSNLKFGFKVTQVDYNAGEGIYRVTGFDRRSGKTHTYQCRKLVLGTGTEPYLPKDCPIQDARIMHTASYMQQKTYLQSQSAITVIGSGQSAADLFYDLLPDIDTYGYQLNWMTRSPRFYPLEYTKLTLEMTSPDYVDYFHELTPNQRCSLIASQKQLYKGINSELINDIYDLLYQKRLLADFQCRLMKNAALTHIEPQANMLKLHFHHNEKNHTFEQETGAVILGTGYHYRLPEFISGIKQQVEFDDAGQLSVQRDYSIDIRGDIFVQNVGLHTHGISSPDLGMGCYRNSTILKAVLGYAPYHIEEHIAFQTFDPAKLASHQPCGVNAINTLNLKTKHFTKASNHTDTADAPHSLYPTQTATSSISAGTSSGAGTHMSVLMAPNKEAQ
Km ([2]; NADPH): 3.81 µM
Vmax [2, 3]: 0.246 µmol/min/mg
kcat [2, 3]: 0.237 s⁻¹
